Assays:
[1] = molecular target: KNH1144 SOSIP.R6 MPER gp140 expressed in 293T cells with furin and kifunensine (HIV-1 isolate KNH1144 (subtype A)); assay: native gel or EMSA
[2] = molecular target: KNH1144 SOSIP.R6 MPER gp140 expressed in 293S GnTI^-/- cells with furin (HIV-1 isolate KNH1144 (subtype A)); assay: SEC
[3] = molecular target: JR-FL SOSIP.R6-IZ-D7324 gp140 expressed in 293T cells (HIV-1 isolate JR-FL (subtype B)); assay: native gel or EMSA
[4] = molecular target: JR-FL SOSIP.R6-IZ-D7324 gp140 expressed in 293S GnTI^-/- cells (HIV-1 isolate JR-FL (subtype B)); assay: SEC
[5] = molecular target: JR-FL SOSIP.R6-IZ-D7324 gp140 expressed in 293S GnTI^-/- cells (HIV-1 isolate JR-FL (subtype B)); assay: native gel or EMSA
[6] = molecular target: KNH1144 SOSIP.R6 MPER gp140 expressed in 293T cells with furin, without kifunensine (HIV-1 isolate KNH1144 (subtype A)); assay: native gel or EMSA

Substance “KNH1144 SOSIP.R6 MPER gp140 expressed in 293T cells with furin and kifunensine (complex)” has a stoichiometry N [1] of 3.
With “KNH1144 SOSIP.R6 MPER gp140 expressed in 293S GnTI^-/- cells with furin (complex)” the stoichiometry N [2] was 3.
With “JR-FL SOSIP.R6-IZ-D7324 gp140 expressed in 293T cells” the stoichiometry N [3] was 3.
“JR-FL SOSIP.R6-IZ-D7324 gp140 expressed in 293S GnTI^-/- cells” gave a stoichiometry N [4] of 3 and a stoichiometry N [5] of 3.
“KNH1144 SOSIP.R6 MPER gp140 expressed in 293T cells with furin, without kifunensine (complex)” showed a stoichiometry N [6] of 3.

Source: publication PMC3776475
